Values quoted from earlier work as cited in publication PMC6963778.

Target: RNF4 (Homo sapiens) (UniProt P78317)

Kd: 180 nM
Substance: RNF4 (from UniProt P78317)
